Test results reported in US7037674.

System: cytochrome c

cytochrome P-450 reductase purified from P. somniferum cell suspension cultures, sequence (chain, as listed by the source): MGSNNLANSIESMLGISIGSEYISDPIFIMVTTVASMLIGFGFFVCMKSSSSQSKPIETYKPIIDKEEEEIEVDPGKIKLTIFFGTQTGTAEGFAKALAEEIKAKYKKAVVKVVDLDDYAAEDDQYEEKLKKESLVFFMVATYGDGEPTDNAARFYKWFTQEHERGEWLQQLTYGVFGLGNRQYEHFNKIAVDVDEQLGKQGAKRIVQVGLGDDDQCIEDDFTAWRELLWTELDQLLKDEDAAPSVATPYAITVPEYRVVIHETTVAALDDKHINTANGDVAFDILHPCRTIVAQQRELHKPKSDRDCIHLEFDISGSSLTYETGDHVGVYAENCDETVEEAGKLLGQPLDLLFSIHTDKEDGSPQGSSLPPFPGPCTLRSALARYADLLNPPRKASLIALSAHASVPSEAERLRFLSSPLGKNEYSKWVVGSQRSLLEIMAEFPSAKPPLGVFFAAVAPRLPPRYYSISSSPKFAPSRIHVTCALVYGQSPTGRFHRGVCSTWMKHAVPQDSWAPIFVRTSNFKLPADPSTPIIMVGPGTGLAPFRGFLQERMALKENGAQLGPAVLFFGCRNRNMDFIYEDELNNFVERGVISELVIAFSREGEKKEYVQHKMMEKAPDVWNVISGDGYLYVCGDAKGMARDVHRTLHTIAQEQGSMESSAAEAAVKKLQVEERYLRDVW

cytochrome P-450 reductase purified from P. somniferum cell suspension cultures
Km (cytochrome c reduction, enzyme activity): The Km value for cytochrome c was 8.3 µM
